In patent US6875737 (TRUSTEES OF TUFTS COLLEGE, dated 2005):
Numbered stars: 1 amine (or outer) side, 2 acyl side, 3 side chain; on linkers, the order of the positions; unused ones are H or OH. Square brackets hold non-standard residues; d marks the D form. Ends that are not written are not given here. * marks the point of attachment. εLys = N[C@@H](CCCCN[*:1])C(=O)[*:2]; Adipoyl = O=C(CCCCC(=O)[*:2])[*:1]; boroPro = OB(O)[C@@H]1CCCN1*

How the values were obtained:
Experiment in all cases: cell-based or functional assay
[1] = target: CD26 on H9 T cells (UniProt P27487 1-766, limits assumed)
[2] = target: T1, T cell receptor of the PLP 139-151 specific T cell clone 5B8.G8.E6.H12
[3] = target: T cell receptor of the PLP 139-151 specific T cell clone SPL.C1.H2.F2
[4] = target: T2, T cell receptor of the PLP 139-151 specific T cell clone 4E3.B11.D9.H10.H6
[5] = target: T cell receptor of the PLP 139-151 specific T cell clone 2E5.G10.G5.E5
[6] = target: T cell receptor of the PLP 139-151 specific T cell clone 7A5.F10.G11
[7] = target: T1, T cell receptor of the PLP 139-151 …; remark: listed apart in the source
[8] = target: T2, T cell receptor of the PLP 139-151 …; remark: listed apart in the source

Sequence of CD26 on H9 T cells (P27487 whole entry): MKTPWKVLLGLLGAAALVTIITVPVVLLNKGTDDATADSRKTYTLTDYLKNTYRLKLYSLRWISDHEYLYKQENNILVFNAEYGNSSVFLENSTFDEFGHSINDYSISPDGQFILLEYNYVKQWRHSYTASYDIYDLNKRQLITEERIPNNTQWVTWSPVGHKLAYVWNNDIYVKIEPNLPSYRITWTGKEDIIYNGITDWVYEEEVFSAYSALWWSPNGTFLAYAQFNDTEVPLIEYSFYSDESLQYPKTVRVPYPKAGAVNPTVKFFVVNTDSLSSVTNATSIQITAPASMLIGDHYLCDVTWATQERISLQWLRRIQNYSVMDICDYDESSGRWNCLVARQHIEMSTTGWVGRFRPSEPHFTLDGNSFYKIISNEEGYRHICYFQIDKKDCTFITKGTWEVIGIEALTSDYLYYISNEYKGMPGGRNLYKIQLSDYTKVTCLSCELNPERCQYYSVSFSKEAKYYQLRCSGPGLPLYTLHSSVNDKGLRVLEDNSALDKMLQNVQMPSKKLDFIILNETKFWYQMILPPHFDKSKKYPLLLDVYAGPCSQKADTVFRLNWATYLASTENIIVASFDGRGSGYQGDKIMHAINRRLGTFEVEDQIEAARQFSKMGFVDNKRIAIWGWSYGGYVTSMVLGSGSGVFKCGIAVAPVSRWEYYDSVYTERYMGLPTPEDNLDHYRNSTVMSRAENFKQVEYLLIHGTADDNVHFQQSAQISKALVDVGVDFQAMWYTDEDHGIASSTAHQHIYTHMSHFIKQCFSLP

Row | Binder | proliferation (thymidine uptake), antigen dose 1 µM [2] | proliferation (thymidine uptake), antigen dose 10 µM [2] | proliferation (thymidine uptake), antigen dose 100 µM [2] | proliferation (thymidine uptake), antigen dose 0.1 µM [3] | proliferation (thymidine uptake), antigen dose 1 µM [3] | proliferation (thymidine uptake), antigen dose 10 µM [3] | proliferation (thymidine uptake), antigen dose 100 µM [3] | proliferation (thymidine uptake), antigen dose 0.1 µM [4] | proliferation (thymidine uptake), antigen dose 1 µM [4] | proliferation (thymidine uptake), antigen dose 10 µM [4] | proliferation (thymidine uptake), antigen dose 100 µM [4] | proliferation (thymidine uptake), antigen dose 0.1 µM [5] | proliferation (thymidine uptake), antigen dose 1 µM [5] | proliferation (thymidine uptake), antigen dose 10 µM [5] | proliferation (thymidine uptake), antigen dose 100 µM [5] | proliferation (thymidine uptake), antigen dose 0.1 µM [6] | proliferation (thymidine uptake), antigen dose 1 µM [6] | proliferation (thymidine uptake), antigen dose 10 µM [6] | proliferation (thymidine uptake), antigen dose 100 µM [6] | also measured
1 | Lys(Adipoyl)-[boroPro] (also: dimer: two Lys-boroPro joined by adipoyl linker between lysine ε-amino groups) [KbP2-Adipate (di(L-Lysine-L-boroProline)adipate)] |  |  |  |  |  |  |  |  |  |  |  |  |  |  |  |  |  |  |  | augmentation of IL-2 production by anti-CD3 (OKT3) stimulated H9 cells [1]: ≤ 4 fold
2 | HSLGKWLGHPDKF [Myelin proteolipid protein peptide PLP 139-151 (HSLGKWLGHPDKF)] | 349 3H counts | 9180 3H counts | 41100 3H counts | 423 3H counts | 107 3H counts | 400 3H counts | 809 3H counts | 318 3H counts | 125 3H counts | 534 3H counts | 1930 3H counts | 101 3H counts | 288 3H counts | 70 3H counts | 1510 3H counts | 117 3H counts | 222 3H counts | 406 3H counts | 2320 3H counts | proliferation (thymidine uptake), antigen dose 0.1 µM [2]: 106 3H counts
3 | HSLGKWLGHPDKFAAAAAA-{εLys-boroPro} | 22000 3H counts | 53600 3H counts | 34700 3H counts | 681 3H counts | 2530 3H counts | 17500 3H counts | 31600 3H counts | 3690 3H counts | 8580 3H counts | 15800 3H counts | 17600 3H counts | 175 3H counts | 7740 3H counts | 26400 3H counts | 36700 3H counts | 187 3H counts | 8200 3H counts | 35500 3H counts | 44000 3H counts | enhancement of the proliferative response against PLP 139-151 [7]: ~200 fold; enhancement of the proliferative response against PLP 139-151 [8]: ~2000 fold
